Our source for the refolding of urea-denatured firefly luciferase with DnaK, DnaJ, GrpE and ATP and ATPase activity values is article PMC7182274 (PLoS Pathogens, 2020).

For test [1], the target named is F. novicida DnaK (F. novicida).
In another test the target is T1, ΔNClpB (Francisella tularensis, UniProt A0Q8N0).
T1 construct: gene clpB

“F. novicida ClpB (wild-type) (natural protein)” returned a refolding of urea-denatured firefly luciferase with DnaK, DnaJ, GrpE and ATP in test [1] of 83%. For the compound `Nc1ncnc2c1ncn2[C@@H]1O[C@H](COP(=O)(O)OP(=O)(O)OP(=O)(O)O)[C@@H](O)[C@H]1O` [ATP], the ATPase activity entry on ΔNClpB is “ΔNClpB had a slightly increased basal ATPase activity in the absence of casein”.
